# Experimental data published in patent US20220064329A1 (Novo Nordisk, published 2022).
# How the values were obtained:
# Assay in all cases: SPR, ratio of KD to KD of WT
# [1] = biological target: T1, FVII(a) variant E265A (human, UniProt P08709 61-466)
# T1 construct: hFVII alanine variant in cell culture supernatant
# T1 sequence: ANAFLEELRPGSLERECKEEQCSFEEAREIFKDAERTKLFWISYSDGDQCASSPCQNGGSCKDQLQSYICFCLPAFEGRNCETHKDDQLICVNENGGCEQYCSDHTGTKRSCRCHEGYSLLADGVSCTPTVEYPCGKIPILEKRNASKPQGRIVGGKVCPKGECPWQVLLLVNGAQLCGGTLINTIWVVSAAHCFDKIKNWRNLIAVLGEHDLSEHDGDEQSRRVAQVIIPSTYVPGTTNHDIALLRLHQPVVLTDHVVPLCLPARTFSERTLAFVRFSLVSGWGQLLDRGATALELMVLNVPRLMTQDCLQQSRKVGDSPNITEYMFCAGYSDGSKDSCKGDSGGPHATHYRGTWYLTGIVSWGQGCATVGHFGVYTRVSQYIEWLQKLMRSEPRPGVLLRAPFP
# Protocol: (§1) The running buffer was prepared by diluting 10-fold the 10×HBS-P buffer (supplied by GE Healthcare) and supplemented with 1 mg/ml BSA and 5 mM CaCl2 to give 10 mM HEPES, 150 mM NaCl, 0.05% v/v Polysorbate 20, pH 7.4, 5 mM CaCl2, 1 mg/ml bovine serum albumin (BSA). […] Regeneration of the chip was achieved using 10 mM HEPES, 150 mM NaCl, 20 mM EDTA, 0.05 v/v Polysorbate 20, pH 7.4. Binding data were analysed according to a 1:1 Kinetic model and steady state analysis using BiaEvaluation 4.1 supplied by the manufacturer (Biacore AB, Uppsala, Sweden). Wherever possible, ka, kd and KD values from 1:1 kinetic fitting model are reported. […] An amino acid residue is considered a hot-spot residue if substitution of that amino acid residue with alanine results in an affinity reduction of ten (10) fold or more relative to the wild type.
# [2] = biological target: T2, FVII(a) variant P251A (human, UniProt P08709 61-466)
# T2 construct: hFVII alanine variant in cell culture supernatant
# T2 sequence: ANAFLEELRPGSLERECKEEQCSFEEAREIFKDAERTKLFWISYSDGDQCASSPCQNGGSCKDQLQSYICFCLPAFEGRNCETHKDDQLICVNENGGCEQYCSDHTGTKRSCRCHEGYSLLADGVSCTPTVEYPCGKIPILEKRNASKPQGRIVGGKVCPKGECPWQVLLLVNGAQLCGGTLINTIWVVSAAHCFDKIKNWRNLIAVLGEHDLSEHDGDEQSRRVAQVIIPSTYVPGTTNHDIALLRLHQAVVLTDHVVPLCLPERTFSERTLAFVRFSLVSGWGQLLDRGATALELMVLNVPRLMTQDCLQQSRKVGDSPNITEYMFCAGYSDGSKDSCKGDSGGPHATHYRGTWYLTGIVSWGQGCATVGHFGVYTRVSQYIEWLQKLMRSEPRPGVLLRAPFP
# Protocol: as §1
# [3] = biological target: T3, FVII(a) variant V252A (human, UniProt P08709 61-466)
# T3 construct: hFVII alanine variant in cell culture supernatant
# T3 sequence: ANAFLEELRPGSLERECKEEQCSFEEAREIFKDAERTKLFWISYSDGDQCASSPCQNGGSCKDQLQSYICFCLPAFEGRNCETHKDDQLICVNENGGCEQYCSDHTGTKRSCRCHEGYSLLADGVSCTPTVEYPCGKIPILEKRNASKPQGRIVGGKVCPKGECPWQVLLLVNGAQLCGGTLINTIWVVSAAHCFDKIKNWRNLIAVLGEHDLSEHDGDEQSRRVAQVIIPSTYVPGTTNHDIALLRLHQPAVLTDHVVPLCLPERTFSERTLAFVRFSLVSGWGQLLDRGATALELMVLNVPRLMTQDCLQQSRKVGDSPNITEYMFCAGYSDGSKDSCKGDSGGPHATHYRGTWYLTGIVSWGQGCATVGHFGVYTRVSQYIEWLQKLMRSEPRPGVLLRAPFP
# Protocol: as §1
# [4] = biological target: T4, FVII(a) variant R392A (human, UniProt P08709 61-466)
# T4 construct: hFVII alanine variant in cell culture supernatant
# T4 sequence: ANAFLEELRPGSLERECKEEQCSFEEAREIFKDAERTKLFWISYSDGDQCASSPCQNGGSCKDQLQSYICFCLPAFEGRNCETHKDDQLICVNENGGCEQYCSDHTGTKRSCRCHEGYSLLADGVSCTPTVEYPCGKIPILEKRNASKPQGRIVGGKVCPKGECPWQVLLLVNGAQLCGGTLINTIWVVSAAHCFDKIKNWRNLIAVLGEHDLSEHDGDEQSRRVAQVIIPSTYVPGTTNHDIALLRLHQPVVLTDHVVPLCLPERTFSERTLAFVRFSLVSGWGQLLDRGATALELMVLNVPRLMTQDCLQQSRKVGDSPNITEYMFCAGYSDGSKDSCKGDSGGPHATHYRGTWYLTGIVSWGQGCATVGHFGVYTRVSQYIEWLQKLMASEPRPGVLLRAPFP
# Protocol: as §1
# [5] = biological target: T5, FVII(a) variant S119A (human, UniProt P08709 61-466)
# T5 construct: hFVII alanine variant in cell culture supernatant
# T5 sequence: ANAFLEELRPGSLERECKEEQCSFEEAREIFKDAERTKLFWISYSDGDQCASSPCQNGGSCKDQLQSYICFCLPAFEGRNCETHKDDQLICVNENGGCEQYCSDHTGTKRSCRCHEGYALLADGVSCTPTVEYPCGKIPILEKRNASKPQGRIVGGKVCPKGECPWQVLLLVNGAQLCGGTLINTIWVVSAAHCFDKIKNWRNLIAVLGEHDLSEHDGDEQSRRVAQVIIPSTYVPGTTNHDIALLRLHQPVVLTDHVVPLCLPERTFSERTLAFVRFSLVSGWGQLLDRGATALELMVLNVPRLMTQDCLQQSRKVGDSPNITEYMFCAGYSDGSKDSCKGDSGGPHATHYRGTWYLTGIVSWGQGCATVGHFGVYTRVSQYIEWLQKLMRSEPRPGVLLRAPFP
# Protocol: as §1
binder,measurement,setting,value
"mAb0842(OA) (antibody, human IgG4 S228P, kappa, also called monovalent humanized 11F2 antibody; one-armed anti-FVII(a) antibody) heavy: QVQLQESGPGLVKPSQTLSLTCTVSGYSISSDSAWSWIRQPPGKGLEWIGYIQYSGSTNYNPSLKSRVTISRDTSKNQFSLKLSSVTAADTAVYYCARSVNYYGNSFAVGYWGQGTLVTVSSASTKGPSVFPLAPCSRSTSESTAALGCLVKDYFPEPVTVSWNSGALTSGVHTFPAVLQSSGLYSLSSVVTVPSSSLGTKTYTCNVDHKPSNTKVDKRVESKYGPPCPPCPAPEFLGGPSVFLFPPKPKDTLMISRTPEVTCVVVDVSQEDPEVQFNWYVDGVEVHNAKTKPREEQFNSTYRVVSVLTVLHQDWLNGKEYKCKVSNKGLPSSIEKTISKAKGQPREPQVYTLPPSQEEMTKNQVSLSCAVKGFYPSDIAVEWESNGQPENNYKTTPPVLDSDGSFFLVSRLTVDKSRWQEGNVFSCSVMHEALHNHYTQKSLSLSLGK light: EIVLTQSPATLSLSPGERATLSCRASQGISDYLHWYQQKPGEAPRLLIKYTSQPATGIPARFSGSGSGTDFTLTISSLEPEDFAVYYCQNGHSFPLTFGQGTKLEIKRTVAAPSVFIFPPSDEQLKSGTASVVCLLNNFYPREAKVQWKVDNALQSGNSQESVTEQDSKDSTYSLSSTLTLSKADYEKHKVYACEVTHQGLSSPVTKSFNRGEC not shown",Fold diff (Variant/WT),[1],3.2 fold
same,Fold diff (Variant/WT),[2],2.8 fold
same,Fold diff (Variant/WT),[3],0.9 fold
same,Fold diff (Variant/WT),[4],142 fold
same,Fold diff (Variant/WT),[5],1 fold
